Laboratory results as given in the Human Domainome abundance scans (Beltran et al. 2025).
± gives the uncertainty stated by the source.

B1: Homeobox protein cut-like 2, residues 895 to 963; numbered along this chain, O14529 (parent)
chain: EVDTLELTRQVKEKLAKNGICQRIFGEKVLGLSQGSVSDMLSRPKPWSKLTQKGREPFIRMQLWLSDQL

Variants of: B1
Assay: abundance fitness (aPCA) (normalised: wild type 0, dead -1); higher = more abundant; growth selection in yeast, the domain comes from the species named
Settings: Homo sapiens

Abundance fitness of substitutions, site by site:
R23: S -0.101 ± 0.035 | K 0.047 ± 0.049 | P -0.627 ± 0.051 | L -0.203 ± 0.029 | I -0.192 ± 0.094 | N 0.038 ± 0.13 | W -0.154 ± 0.044 | D -0.042 ± 0.15 | E 0.068 ± 0.047 | C -0.317 ± 0.091 | A -0.106 ± 0.039 | G -0.103 ± 0.048 | T -0.155 ± 0.044 | F -0.009 ± 0.056 | V -0.162 ± 0.03 | H -0.094 ± 0.096 | M -0.207 ± 0.034 | Q -0.079 ± 0.048
G26: W -0.591 ± 0.035 | A 0.082 ± 0.065 | T -0.221 ± 0.063 | M -0.153 ± 0.039 | C -0.02 ± 0.032 | E -0.397 ± 0.073 | Q -0.584 ± 0.12 | H -0.525 ± 0.12 | P -0.219 ± 0.16 | F -0.02 ± 0.032 | D -0.306 ± 0.084 | K -0.207 ± 0.049 | S -0.035 ± 0.033 | L -0.162 ± 0.028 | V -0.263 ± 0.037 | R -0.295 ± 0.042 | I -0.284 ± 0.05 | Y -0.169 ± 0.042
I20: Q -0.202 ± 0.046 | M -0.023 ± 0.037 | A -0.535 ± 0.052 | W -0.11 ± 0.077 | V -0.201 ± 0.036 | P -0.226 ± 0.042 | E -0.575 ± 0.061 | D -0.415 ± 0.067 | F -0.058 ± 0.04 | C -0.269 ± 0.065 | G -0.412 ± 0.057 | H -0.382 ± 0.052 | S -0.342 ± 0.038 | R -0.409 ± 0.051 | Y -0.179 ± 0.049 | N -0.453 ± 0.077 | K -0.32 ± 0.051
E27: F -0.173 ± 0.031 | Q -0.007 ± 0.033 | D -0.162 ± 0.046 | A -0.063 ± 0.035 | Y -0.191 ± 0.046 | N -0.108 ± 0.052 | G -0.072 ± 0.033 | T -0.149 ± 0.044 | V -0.18 ± 0.025 | K 0.001 ± 0.032 | I -0.128 ± 0.036 | R -0.019 ± 0.032 | W -0.091 ± 0.032 | M -0.14 ± 0.027 | P -0.106 ± 0.041 | S -0.006 ± 0.032
V29: A -0.36 ± 0.043 | T -0.258 ± 0.034 | R -0.121 ± 0.031 | S -0.325 ± 0.034 | F -0.174 ± 0.048 | P -0.345 ± 0.042 | G -0.173 ± 0.039 | Q -0.381 ± 0.039 | E -0.535 ± 0.055 | I 0.124 ± 0.051 | K -0.129 ± 0.037 | Y -0.145 ± 0.052 | H -0.394 ± 0.054 | D -0.476 ± 0.07 | N -0.551 ± 0.055 | W -0.113 ± 0.044 | L -0.108 ± 0.029 | C -0.104 ± 0.064 | M -0.104 ± 0.034
S33: C -0.035 ± 0.037 | N -0.003 ± 0.069 | T -0.036 ± 0.048 | Q -0.027 ± 0.049 | L -0.057 ± 0.03 | P 0.03 ± 0.032 | A -0.042 ± 0.031 | K 0.023 ± 0.067 | G -0.03 ± 0.033 | V -0.061 ± 0.034 | I -0.088 ± 0.058 | F -0.009 ± 0.047 | M 0.053 ± 0.05 | Y -0.12 ± 0.047
L30: A -0.447 ± 0.083 | V -0.275 ± 0.03 | F -0.186 ± 0.038 | T -0.536 ± 0.11 | R -0.18 ± 0.037 | S -0.418 ± 0.049 | W -0.21 ± 0.033 | Q -0.423 ± 0.061 | Y -0.472 ± 0.05 | K -0.178 ± 0.038 | N -0.425 ± 0.063 | M -0.178 ± 0.036 | C -0.234 ± 0.043 | D -0.588 ± 0.048 | I -0.301 ± 0.049 | G -0.387 ± 0.032
I24: Y 0.097 ± 0.059 | D -0.047 ± 0.12 | F 0.143 ± 0.056 | K -0.084 ± 0.051 | H 0.007 ± 0.085 | E 0.278 ± 0.046 | L 0.033 ± 0.029 | P -0.934 ± 0.12 | N -0.204 ± 0.079 | M -0.023 ± 0.037 | A -0.117 ± 0.064 | W 0.103 ± 0.034 | R -0.093 ± 0.034 | G -0.347 ± 0.042 | C -0.243 ± 0.042 | S -0.084 ± 0.036
G31: T -0.274 ± 0.039 | I -0.712 ± 0.068 | L -0.314 ± 0.036 | W -0.367 ± 0.058 | C -0.257 ± 0.044 | Q -0.213 ± 0.064 | R -0.107 ± 0.038 | V -0.514 ± 0.052 | F -0.317 ± 0.049 | D -0.132 ± 0.072 | M -0.347 ± 0.068 | S -0.134 ± 0.032 | K -0.129 ± 0.076 | H -0.059 ± 0.054 | P -0.378 ± 0.038 | N -0.121 ± 0.081 | A -0.226 ± 0.042 | Y -0.449 ± 0.062 | E -0.48 ± 0.1
K28: Q 0.012 ± 0.033 | A -0.19 ± 0.04 | C -0.293 ± 0.055 | F -0.327 ± 0.038 | P -0.6 ± 0.04 | I -0.502 ± 0.055 | H -0.128 ± 0.054 | L -0.335 ± 0.027 | G -0.184 ± 0.035 | S -0.116 ± 0.028 | E -0.026 ± 0.043 | W -0.263 ± 0.037 | Y -0.296 ± 0.047 | M -0.155 ± 0.032 | T -0.078 ± 0.033 | V -0.184 ± 0.035 | N -0.242 ± 0.049 | R -0.1 ± 0.032
Q34: Y -0.05 ± 0.038 | I 0.005 ± 0.037 | P 0.053 ± 0.029 | H 0.027 ± 0.038 | M -0.06 ± 0.041 | S -0.028 ± 0.031 | F 0.003 ± 0.04 | G 0.434 ± 0.23 | E -0.254 ± 0.22 | L -0.003 ± 0.028 | N 0.046 ± 0.038 | W 0.088 ± 0.15 | C -0.262 ± 0.18 | R 0.282 ± 0.13 | K 0.069 ± 0.045 | D -0.078 ± 0.14 | V 0.073 ± 0.13 | A 0.088 ± 0.081
S36: Q 0.15 ± 0.032 | E 0.152 ± 0.054 | D 0.134 ± 0.051 | H -0.062 ± 0.036 | P -0.08 ± 0.028 | R -0.097 ± 0.056 | G -0.34 ± 0.089 | I 0.027 ± 0.036 | A 0.073 ± 0.035 | M -0.024 ± 0.028 | F -0.093 ± 0.041 | N -0.045 ± 0.041 | L 0.021 ± 0.025
L32: H -0.231 ± 0.063 | V 0.132 ± 0.05 | F -0.141 ± 0.028 | K -0.169 ± 0.056 | T -0.211 ± 0.047 | P -0.286 ± 0.057 | N -0.305 ± 0.042 | A -0.279 ± 0.078 | C -0.136 ± 0.052 | S -0.203 ± 0.04 | Q -0.304 ± 0.1 | E -0.227 ± 0.13 | Y -0.281 ± 0.035 | R -0.179 ± 0.052 | M -0.032 ± 0.053 | W -0.043 ± 0.063 | I -0.063 ± 0.034
K17: G -0.234 ± 0.043 | Q 0 ± 0.051 | M -0.09 ± 0.039 | Y -0.276 ± 0.076 | N -0.011 ± 0.074 | W -0.269 ± 0.053 | S -0.208 ± 0.051 | V -0.169 ± 0.027 | L -0.087 ± 0.029 | R -0.089 ± 0.055 | P -0.411 ± 0.092 | I -0.292 ± 0.066 | H -0.382 ± 0.093
C21: D -0.103 ± 0.099 | E -0.04 ± 0.043 | K -0.034 ± 0.039 | I -0.115 ± 0.083 | A -0.04 ± 0.038 | T 0.093 ± 0.04 | F -0.094 ± 0.15 | P 0.027 ± 0.057 | R -0.087 ± 0.031 | Y -0.41 ± 0.097 | S 0.082 ± 0.043 | M -0.045 ± 0.039 | V -0.174 ± 0.041 | H -0.029 ± 0.081 | N 0.015 ± 0.088 | W -0.104 ± 0.035 | G -0.062 ± 0.036
F25: I -0.711 ± 0.14 | W -0.053 ± 0.042 | M -0.462 ± 0.046 | G -0.9 ± 0.064 | N -0.803 ± 0.17 | L -0.351 ± 0.033 | E -0.904 ± 0.054 | S -0.721 ± 0.061 | R -0.568 ± 0.067 | C -0.707 ± 0.067 | Y -0.779 ± 0.1 | P -1.05 ± 0.41 | T -0.449 ± 0.063 | K -0.62 ± 0.054 | V -0.646 ± 0.037 | A -0.827 ± 0.079
G35: E 0.135 ± 0.045 | L -0.03 ± 0.024 | T 0.039 ± 0.048 | D -0.125 ± 0.07 | M -0.098 ± 0.036 | W -0.106 ± 0.031 | V -0.058 ± 0.033 | P -0.077 ± 0.04 | Y -0.125 ± 0.043 | H -0.043 ± 0.04 | K 0.124 ± 0.043 | I -0.215 ± 0.062 | F -0.079 ± 0.037 | N 0.044 ± 0.088 | A -0.006 ± 0.045 | R 0.037 ± 0.027 | C -0.211 ± 0.043 | Q 0.088 ± 0.03 | S 0.027 ± 0.038
N18: K 0.04 ± 0.037 | Q -0.016 ± 0.034 | H 0.001 ± 0.049 | Y -0.128 ± 0.057 | R 0.013 ± 0.035 | E 0.045 ± 0.063 | C -0.354 ± 0.091 | T 0.022 ± 0.035 | I -0.101 ± 0.049 | W -0.102 ± 0.041 | V -0.075 ± 0.043 | F -0.065 ± 0.045 | D -0.153 ± 0.081 | A -0.119 ± 0.044 | G -0.098 ± 0.058 | L 0.115 ± 0.027
G19: Y -0.122 ± 0.057 | T -0.332 ± 0.097 | R 0.032 ± 0.065 | Q -0.242 ± 0.07 | A -0.32 ± 0.095 | K 0.009 ± 0.041 | P -0.005 ± 0.15 | F -0.226 ± 0.041 | H -0.374 ± 0.33 | I -0.434 ± 0.057 | N -0.007 ± 0.076 | W -0.341 ± 0.06 | L -0.31 ± 0.025 | V -0.417 ± 0.057 | S -0.01 ± 0.062 | E -0.46 ± 0.092
Q22: M -0.071 ± 0.046 | R -0.062 ± 0.044 | A -0.098 ± 0.05 | K -0.095 ± 0.064 | N -0.461 ± 0.14 | H -0.239 ± 0.12 | T -0.151 ± 0.059 | W -0.021 ± 0.042 | L -0.003 ± 0.032 | D -0.457 ± 0.21 | F -0.182 ± 0.07 | S -0.089 ± 0.032 | C -0.306 ± 0.1 | V -0.116 ± 0.041 | P -0.073 ± 0.06 | E -0.011 ± 0.061 | G -0.354 ± 0.049 | I -0.223 ± 0.1
